Here are results for two substances from article doi:10.1101/2024.10.24.620088.

Test in all cases: cryo-EM structure
The target in test [1] is DUF4297 from Bacillus ap. HMH5848 (Bacillus ap. HMH5848).
Test [2] has the same target. This is another data set of the same source.
Test [3] addresses HerA from Bacillus ap. HMH5848 (Bacillus ap. HMH5848).
The target is the same in test [4]. This is another data set of the same source.

Several values for one entry are separate records, joined by “and”; a condition that tells them apart may be missing. Equal entries are not always repeated. Where two headings read alike, the source gives them in different places.

With “DUF4297 from Bacillus ap. HMH5848 (natural protein)”, the stoichiometry N (usually the number of molecules, sites or subunits per partner or assembly) is 12 in test [1]; 12 and 4 and 6 in test [2].
Turning to HerA from Bacillus ap. HMH5848 (enzyme), the stoichiometry N in test [3] and in test [4] was 6 each time.
